Assays:
DPP-IV = target: T1, DPP-IV (Homo sapiens, UniProt P27487); experiment: Biacore surface plasmon resonance binding to immobilized DPP-IV; conditions: ADA from bovine
T1 construct: The ectodomain of DPP-IV, residues 31-766 (sDPP-IV), was amplified by PCR using a cDNA; made in house; host or cells: Pichia pastoris strain GS115 (pPICZα-A vector)
Procedure: DPP-IV was immobilized on a CM5 surface plasmon resonance sensor (Biacore) using standard amide coupling chemistry. The organic adlayer on this sensor type consists of carboxymethylated dextran (MW≈100 kDA). After activation of the carboxylic acid groups using carbodiimide/N-hydroxysuccinimide solutions, the surface was contacted with a DPP-IV solution (80 μl) containing≈100 μg/ml protein in acetate buffer (10 mM, pH 4.5). […] The surfaces of two flow cells were modified with protein. […] Hepes buffer (0.01 M Hepes, pH 7.4, 0.15 M NaCl, 3 mM EDTA, 0.005% polysorbate 20 (v/v)) was used as the running buffer. Diprotin-A was disolved directly in this buffer. […] The final inhibitor solution contained less than 0.1% DMSO. Binding experiments were carried out by contacting the immobilized protein surfaces with inhibitor solutions of varying concentrations at a flow rate of 10 μl/min or 30 μl/min. After each contact with inhibitor, the protein surfaces were regenerated by extensively washing with running buffer.

[1] = target: T2, sDPP-IV (soluble extracellular domain of human dipeptidyl peptidase IV) (Homo sapiens, UniProt P27487); experiment: DPP-IV activity assay, fluorescence of products from Ala-Pro-7-amido-4-trifluoromethylcoumarin; assay type: biochemical; conditions: Lineweaver-Burk plots; 50 mM Tris/HCl pH 7.8, 100 mM NaCl, 0.1 mg/ml BSA, 0.5% dimethylformamide; 25° C.
T2 construct: The ectodomain of DPP-IV, residues 31-766 (sDPP-IV), was amplified by PCR using a cDNA; made in house; host or cells: Pichia pastoris strain GS115 (pPICZα-A vector)
Procedure: A 20 mM stock solution in 10% DMF is stored at −20° C. until use. […] DPP-IV activity assays were performed in 96 well plates in a total assay volume of 100 μl. The assay buffer consists of S-Buffer containing 0.1 mg/ml BSA. […] Initial rate constants are calculated by best fit linear regression.

| Molecule | koff (dissociation rate) of ADA (DPP-IV) | kon of ADA (DPP-IV) | Km [1] | kcat [1] |
| --- | --- | --- | --- | --- |
| ADA: adenosine deaminase, Sigma Type IV, from calf intestinal mucosa (bovine) (protein) AQTPAFNKPKVELHVHLDGAIKPETILYYGRKRGIALPADTPEELQNIIGMDKPLSLPEFLAKFDYYMPAIAGCREAVKRIAYEFVEMKAKDGVVYVEVRYSPHLLANSKVEPIPWNQAEGDLTPDEVVSLVNQGLQEGERDFGVKVRSILCCMRHQPSWSSEVVELCKKYREQTVVAIDLAGDETIEGSSLFPGHVKAYAEAVKSGVHRTVHAGEVGSANVVKEAVDTLKTERLGHGYHTLEDATLYNRLRQENMHFEVCPWSSYLTGAWKPDTEHPVVRFKNDQVNYSLNTDDPLIFKSTLDTDYQMTKNEMGFTEEEFKRLNINAAKSSFLPEDEKKELLDLLYKAYGMPSPA | 8.75e-05 s⁻¹ | 29800 M⁻¹ s⁻¹ | – | – |
| sDPP-IVdeglycos: enzymatically deglycosylated sDPP-IV (EndoF1-GST treated) (protein) GTDDATADSRKTYTLTDYLKNTYRLKLYSLRWISDHEYLYKQENNILVFNAEYGNSSVFLENSTFDEFGHSINDYSISPDGQFILLEYNYVKQWRHSYTASYDIYDLNKRQLITEERIPNNTQWVTWSPVGHKLAYVWNNDIYVKIEPNLPSYRITWTGKEDIIYNGITDWVYEEEVFSAYSALWWSPNGTFLAYAQFNDTEVPLIEYSFYSDESLQYPKTVRVPYPKAGAVNPTVKFFVVNTDSLSSVTNATSIQITAPASMLIGDHYLCDVTWATQERISLQWLRRIQNYSVMDICDYDESSGRWNCLVARQHIEMSTTGWVGRFRPSEPHFTLDGNSFYKIISNEEGYRHICYFQIDKKDCTFITKGTWEVIGIEALTSDYLYYISNEYKGMPGGRNLYKIQLSDYTKVTCLSCELNPERCQYYSVSFSKEAKYYQLRCSGPGLPLYTLHSSVNDKGLRVLEDNSALDKMLQNVQMPSKKLDFIILNETKFWYQMILPPHFDKSKKYPLLLDVYAGPCSQKADTVFRLNWATYLASTENIIVASFDGRGSGYQGDKIMHAINRRLGTFEVEDQIEAARQFSKMGFVDNKRIAIWGWSYGGYVTSMVLGSGSGVFKCGIAVAPVSRWEYYDSVYTERYMGLPTPEDNLDHYRNSTVMSRAENFKQVEYLLIHGTADDNVHFQQSAQISKALVDVGVDFQAMWYTDEDHGIASSTAHQHIYTHMSHFIKQCFSLP | – | – | 17.2 µM | 43.1 s⁻¹ |
| sDPP-IVglycos: glycosylated sDPP-IV (protein) GTDDATADSRKTYTLTDYLKNTYRLKLYSLRWISDHEYLYKQENNILVFNAEYGNSSVFLENSTFDEFGHSINDYSISPDGQFILLEYNYVKQWRHSYTASYDIYDLNKRQLITEERIPNNTQWVTWSPVGHKLAYVWNNDIYVKIEPNLPSYRITWTGKEDIIYNGITDWVYEEEVFSAYSALWWSPNGTFLAYAQFNDTEVPLIEYSFYSDESLQYPKTVRVPYPKAGAVNPTVKFFVVNTDSLSSVTNATSIQITAPASMLIGDHYLCDVTWATQERISLQWLRRIQNYSVMDICDYDESSGRWNCLVARQHIEMSTTGWVGRFRPSEPHFTLDGNSFYKIISNEEGYRHICYFQIDKKDCTFITKGTWEVIGIEALTSDYLYYISNEYKGMPGGRNLYKIQLSDYTKVTCLSCELNPERCQYYSVSFSKEAKYYQLRCSGPGLPLYTLHSSVNDKGLRVLEDNSALDKMLQNVQMPSKKLDFIILNETKFWYQMILPPHFDKSKKYPLLLDVYAGPCSQKADTVFRLNWATYLASTENIIVASFDGRGSGYQGDKIMHAINRRLGTFEVEDQIEAARQFSKMGFVDNKRIAIWGWSYGGYVTSMVLGSGSGVFKCGIAVAPVSRWEYYDSVYTERYMGLPTPEDNLDHYRNSTVMSRAENFKQVEYLLIHGTADDNVHFQQSAQISKALVDVGVDFQAMWYTDEDHGIASSTAHQHIYTHMSHFIKQCFSLP | – | – | 15.5 µM | 37.3 s⁻¹ |
